Patent US20250003951A1 (OXFORD UNIVERSITY INNOVATION, published 2025)
One block for each binder: values may come before it.

What was measured:
Assay in all cases: cell-based or functional assay
[1] = molecular target: T1, OX993-414 (human)
T1 peptide: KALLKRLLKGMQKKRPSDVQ

[2] = molecular target: T2, OX993-413 (human)
T2 peptide: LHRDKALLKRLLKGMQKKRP

[3] = molecular target: T3, OX1149-290 (human)
T3 peptide: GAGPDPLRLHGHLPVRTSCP

[4] = molecular target: T4, OX802-322 (human)
T4 peptide: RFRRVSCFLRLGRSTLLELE

[5] = molecular target: T5, OX802-321 (human)
T5 peptide: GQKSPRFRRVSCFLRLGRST

[6] = molecular target: T6, OX289-075 (human)
T6 peptide: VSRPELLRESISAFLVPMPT

[7] = molecular target: T7, OX289-205 (human)
T7 peptide: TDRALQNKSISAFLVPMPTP

[8] = molecular target: T8, OX289-052 (human)
T8 peptide: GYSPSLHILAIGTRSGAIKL

[9] = molecular target: T9, OX289-221 (human)
T9 peptide: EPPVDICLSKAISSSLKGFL

B1: OX993 Peptides 413/414 clone 1 TCR (TCR)
TCR alpha 1: GESVGLHLPTLSVQEGDNSIINCAYSNSASDYFIWYKQESGKGPQFIIDIRSNMDKRQGQRVTVLLNKTVKHLSLQIAATQPGDSAVYFCAEIGSGAGSYQLTFGKGTKLSVIPNIQNPDPAVYQLRD
TCR alpha 2: GESVGLHLPTLSVQEGDNSIINCAYSNSASDYFIWYKQESGKGPQFIIDIRSNMDKRQGQRVTVLLNKTVKHLSLQIAATQPGDSAVYFCAENQGGSSYKLIFGSGTRLLVRPDIQNPDPAVYQLRD
TCR beta: DTGVSQNPRHKITKRGQNVTFRCDPISEHNRLYWYRQTLGQGPEFLTYFQNEAQLEKSRLLSDRFSAERPKGSFSTLEIQRTEQGDSAMYLCASSSQSGVDTEAFFGQGTRLTVVEDLNKVFPPEVAVFEPS
Clone size (percent repertoire), IFNγ+ sorted T cells after peptide stimulation [1]: 26.7 % of repertoire | Clone size (percent repertoire), IFNγ+ sorted T cells after peptide stimulation [2]: 26.7 % of repertoire

B3: OX802 Peptides 321/322 clone 1 TCR (TCR)
TCR alpha 1: AGQSLEQPSEVTAVEGAIVQINCTYQTSGFYGLSWYQQHDGGAPTFLSYNALDGLEETGRFSSFLSRSDSYGYLLLQELQMKDSASYFCAVLKKGYALNFGKGTSLLVTPHIQNPDPAVYQLRD
TCR alpha 2: KDQVFQPSTVASSEGAVVEIFCNHSVSNAYNFFWYLHFPGCAPRLLVKGSKPSQQGRYNMTYERFSSSLLILQVREADAAVYYCAVAGGYNKLIFGAGTRLAVHPYIQNPDPAVYQLRD
TCR beta: EAGVVQSPRYKIIEKKQPVAFWCNPISGHNTLYWYLQNLGQGPELLIRYENEEAVDDSQLPKDRFSAERLKGVDSTLKIQPAELGDSAVYLCASSLEAGDSYEQYFGPGTRLTVTEDLKNVFPPEVAVFEPS
Clone size (percent repertoire), IFNγ+ sorted T cells after peptide stimulation [4]: 47.4 % of repertoire | Clone size (percent repertoire), IFNγ+ sorted T cells after peptide stimulation [5]: 47.4 % of repertoire

B6: OX289 Peptides 75/205 clone 1 TCR (TCR)
TCR alpha 1: NSVTQMEGPVTLSEEAFLTINCTYTATGYPSLFWYVQYPGEGLQLLLKATKADDKGSNKGFEATYRKETTSFHLEKGSVQVSDSAVYFCALRHKAAGNKLTFGGGTRVLVKPNIQNPDPAVYQLRD
TCR alpha 2: QQKEKSDQQQVKQSPQSLIVQKGGISIINCAYENTAFDYFPWYQQFPGKGPALLIAIRPDVSEKKEGRFTISFNKSAKQFSLHIMDSQPGDSATYFCAALFDGGSQGNLIFGKGTKLSVKPNIQNPDPAVYQLRD
TCR beta: AVVSQHPSWVICKSGTSVKIECRSLDFQATTMFWYRQFPKQSLMLMATSNEGSKATYEQGVEKDKFLINHASLTLSTLTVTSAHPEDSSFYICSASGPEKLFFGSGTQLSVLEDLNKVFPPEVAVFEPS
Clone size (percent repertoire), IFNγ+ sorted T cells after peptide stimulation [6]: 42.4 % of repertoire | Clone size (percent repertoire), IFNγ+ sorted T cells after peptide stimulation [7]: 42.4 % of repertoire

B7: OX289 Peptide 52 clone 1 TCR (TCR)
TCR alpha: AQSVTQPDIHITVSEGASLELRCNYSYGATPYLFWYVQSPGQGLQLLLKYFSGDTLVQGIKGFEAEFKRSQSSFNLRKPSVHWSDAAEYFCAVGAYSSASKIIFGSGTRLSIRPNIQNPDPAVYQLRD
TCR beta 1: EPEVTQTPSHQVTQMGQEVILRCVPISNHLYFYWYRQILGQKVEFLVSFYNNEISEKSEIFDDQFSVERPDGSNFTLKIRSTKLEDSAMYFCASRDRGSGANVLTFGAGSRLTVLEDLKNVFPPEVAVFEPS
TCR beta 2: AVVSQHPSWVICKSGTSVKIECRSLDFQATTMFWYRQFPKQSLMLMATSNEGSKATYEQGVEKDKFLINHASLTLSTLTVTSAHPEDSSFYICSGGWGPNTGELFFGEGSRLTVLEDLKNVFPPEVAVFEPS
Clone size (percent repertoire), IFNγ+ sorted T cells after peptide stimulation [8]: 27.3 % of repertoire

B9: OX802 Peptides 321/322 clone 2 TCR (TCR, V domains shown)
V domain 1: KDQVFQPSTVASSEGAVVEIFCNHSVSNAYNFFWYLHFPGCAPRLLVKGSKPSQQGRYNMTYERFSSSLLILQVREADAAVYYCAVTGGYNKLIFGAGTRLAVHP
V domain 2: EAGVVQSPRYKIIEKKQPVAFWCNPISGHNTLYWYLQNLGQGPELLIRYENEEAVDDSQLPKDRFSAERLKGVDSTLKIQPAELGDSAVYLCASSLEAGDSYEQYFGPGTRLTVTE
Clone size (percent repertoire), IFNγ+ sorted T cells after peptide stimulation [4]: 20 % of repertoire | Clone size (percent repertoire), IFNγ+ sorted T cells after peptide stimulation [5]: 20 % of repertoire

B10: OX289 Peptide 221 clone 1 TCR (TCR, V domains shown)
V domain 1: SLAKTTQPISMDSYEGQEVNITCSHNNIATNDYITWYQQFPSQGPRFIIQGYKTKVTNEVASLFIPADRKSSTLSLPRVSLSDTAVYYCLVVPVYNQGGKLIFGQGTELSVKP
V domain 2: KAGVTQTPRYLIKTRGQQVTLSCSPISGHRSVSWYQQTPGQGLQFLFEYFSETQRNKGNFPGRFSGRQFSNSRSEMNVSTLELGDSALYLCASSSGTSGMGETQYFGPGTRLLVLE
Clone size (percent repertoire), IFNγ+ sorted T cells after peptide stimulation [9]: 65.4 % of repertoire

B11: OX289 Peptides 75/205 clone 3 TCR (TCR, V domains shown)
V domain 1: NSVTQMEGPVTLSEEAFLTINCTYTATGYPSLFWYVQYPGEGLQLLLKATKADDKGSNKGFEATYRKETTSFHLEKGSVQVSDSAVYFCALRGRNQGGKLIFGQGTELSVKP
V domain 2: GAVVSQHPSRVICKSGTSVKIECRSLDFQATTMFWYRQFPKQSLMLMATSNEGSKATYEQGVEKDKFLINHASLTLSTLTVTSAHPEDSSFYICSARLSSGGGYEQFFGPGTRLTVLE
Clone size (percent repertoire), IFNγ+ sorted T cells after peptide stimulation [6]: 13.9 % of repertoire | Clone size (percent repertoire), IFNγ+ sorted T cells after peptide stimulation [7]: 13.9 % of repertoire

B12: OX289 Peptide 221 clone 2 TCR (TCR, V domains shown)
V domain 1: GDAKTTQPNSMESNEEEPVHLPCNHSTISGTDYIHWYRQLPSQGPEYVIHGLTSNVNNRMASLAIAEDRKSSTLILHRATLRDAAVYYCILRDVGGSEKLVFGKGTKLTVNP
V domain 2: AVVSQHPSWVICKSGTSVKIECRSLDFQATTMFWYRQFPKQSLMLMATSNEGSKATYEQGVEKDKFLINHASLTLSTLTVTSAHPEDSSFYICSAKGLENQPQHFGDGTRLSILE
Clone size (percent repertoire), IFNγ+ sorted T cells after peptide stimulation [9]: 10.9 % of repertoire

B14: OX289 Peptide 52 clone 2 TCR (TCR, V domains shown)
V domain 1: EDKVVQSPLSLVVHEGDTVTLNCSYEVTNFRSLLWYKQEKKAPTFLFMLTSSGIEKKSGRLSSILDKKELSSILNITATQTGDSAIYLCAVGHFSSRSSGSARQLTFGSGTQLTVLP
V domain 2: DAGVIQSPRHEVTEMGQEVTLRCKPISGHNSLFWYRQTMMRGLELLIYFNNNVPIDDSGMPEDRFSAKMPNASFSTLKIQPSEPRDSAVYFCASSLKVGVDSSYNEQFFGPGTRLTVLE
Clone size (percent repertoire), IFNγ+ sorted T cells after peptide stimulation [8]: 10.7 % of repertoire

The remaining lines, values ahead:

Clone size (percent repertoire), IFNγ+ sorted T cells after peptide stimulation [3]: 4.8 % of repertoire
B2: OX1149 Peptide 290 clone 3 TCR (TCR)
TCR alpha 1: GDAKTTQPNSMESNEEEPVHLPCNHSTISGTDYIHWYRQLPSQGPEYVIHGLTSNVNNRMASLAIAEDRKSSTLILHRATLRDAAVYYCILVEGNEKLTFGTGTRLTIIPNIQNPDPAVYQLRD
TCR alpha 2: SQELEQSPQSLIVQEGKNLTINCTSSKTLYGLYWYKQKYGEGLIFLMMLQKGGEEKSHEKITAKLDEKKQQSSLHITASQPSHAGIYLCGADVQGSQGNLIFGKGTKLSVKPNIQNPDPAVYQLRD
TCR beta: EPEVTQTPSHQVTQMGQEVILRCVPISNHLYFYWYRQILGQKVEFLVSFYNNEISEKSEIFDDQFSVERPDGSNFTLKIRSTKLEDSAMYFCASRLGGRTTEAFFGQGTRLTVVEDLNKVFPPEVAVFEPS

Clone size (percent repertoire), IFNγ+ sorted T cells after peptide stimulation [3]: 7 % of repertoire
B4: OX1149 Peptide 290 clone 2 TCR (TCR, V domains shown)
V domain 1: RGNGKNQVEQSPQSLIILEGKNCTLQCNYTVSPFSNLRWYKQDTGRGPVSLTIMTFSENTKSNGRYTATLDADTKQSSLHITASQLSDSASYICVVTGGANNLFFGTGTRLTVIP
V domain 2: KAGVTQTPRYLIKTRGQQVTLSCSPISGHRSVSWYQQTPGQGLQFLFEYFSETQRNKGNFPGRFSGRQFSNSRSEMNVSTLELGDSALYLCASSEAGEWTQYFGPGTRLTVLE

Clone size (percent repertoire), IFNγ+ sorted T cells after peptide stimulation [3]: 20.4 % of repertoire
B5: OX1149 Peptide 290 clone 1 TCR (TCR, V domains shown)
V domain 1: GENVEQHPSTLSVQEGDSAVIKCTYSDSASNYFPWYKQELGKRPQLIIDIRSNVGEKKDQRIAVTLNKTAKHFSLHITETQPEDSAVYFCAASIATDKLIFGTGTRLQVFP
V domain 2: KAGVTQTPRYLIKTRGQQVTLSCSPISGHRSVSWYQQTPGQGLQFLFEYFSETQRNKGNFPGRFSGRQFSNSRSEMNVSTLELGDSALYLCASSWRGQGEGYTFGSGTRLTVVE

Clone size (percent repertoire), IFNγ+ sorted T cells after peptide stimulation [1]: 13.7 % of repertoire | Clone size (percent repertoire), IFNγ+ sorted T cells after peptide stimulation [2]: 13.7 % of repertoire
B8: OX993 Peptides 413/414 clone 2 TCR (TCR)
TCR alpha: AQSVTQLGSHVSVSEGALVLLRCNYSSSVPPYLFWYVQYPNQGLQLLLKYTTGATLVKGINGFEAEFKKSETSFHLTKPSAHMSDAAEYFCAVSPPAQKLVFGTGTRLLVSPNIQNPDPAVYQLRD
TCR beta 1: NAGVTQTPKFQVLKTGQSMTLQCAQDMNHEYMSWYRQDPGMGLRLIHYSVGAGITDQGEVPNGYNVSRSTTEDFPLRLLSAAPSQTSVYFCASQETGVGGELFFGEGSRLTVLEDLKNVFPPEVAVFEPS
TCR beta 2: NAGVTQTPKFQVLKTGQSMTLQCAQDMNHEYMSWYRQDPGMGLRLIHYSVGAGITDQGEVPNGYNVSRSTTEDFPLRLLSAAPSQTSVYFCASSTTAVVSPLHFGNGTRLTVTEDLNKVFPPEVAVFEPS

Clone size (percent repertoire), IFNγ+ sorted T cells after peptide stimulation [1]: 11.6 % of repertoire | Clone size (percent repertoire), IFNγ+ sorted T cells after peptide stimulation [2]: 11.6 % of repertoire
B13: OX993 Peptides 413/414 clone 3 TCR (TCR, V domains shown)
V domain 1: RGEDVEQSLFLSVREGDSSVINCTYTDSSSTYLYWYKQEPGAGLQLLTYIFSNMDMKQDQRLTVLLNKKDKHLSLRIADTQTGDSAIYFCAEKKEGFKTIFGAGTRLFVKA
V domain 2: NAGVTQTPKFQVLKTGQSMTLQCAQDMNHEYMSWYRQDPGMGLRLIHYSVGAGITDQGEVPNGYNVSRSTTEDFPLRLLSAAPSQTSVYFCASQETGVGGELFFGEGSRLTVLE
